Values belong to the molecule of their own block, whether it stands above or below them.
Assays:
[1] = target: mIL-2:S4B6 immunocomplex (mouse | not stated) (UniProt P04351); experiment: SPR
[2] = target: IL-2Rβ/IL-2Rγ (Homo sapiens) (UniProt P14784); conditions: cited from earlier work
[3] = target: mouse interleukin-2 displayed on the surface of yeast (mouse, UniProt P04351); experiment: flow cytometry on cells
[4] = target: mouse interleukin-2 (mouse) (UniProt P04351)

fold enhancement of binding over free mIL-2 [1]: 6 fold
Molecule: mouse interleukin-2 receptor-β (from UniProt P16297 27-240)

Molecule: IL-2 (from UniProt P60568)
Kd [2]: 1 nM

binding result [3]: binds
B1: JES6-1 antibody (antibody, V domains shown)
VH: EIQLQQSGPELRRPGSSVKLSCKASGYNITDYLIHWVRHRPEHGLEWIGWIDPEDGETRYAQKFQSKATLTADTSSNAAYMQLSSLTPEDTATYFCARSLDSTYIYPFAYWGQGTLVTVSS
VL: DIVMTQSPFSLAVSEGEMVTINCKSSQSLLSSGNQKNYLAWYQQKPGQSPKLLIYYASTGQSGVPDRFIGSGSGTDFTLTISDVQAEDLADYYCLQHYISPPTFGAGTKLELK

fold higher apparent affinity than the monovalent form [4]: > 25 fold
binding result [3]: binds
B2: S4B6 antibody (antibody, V domains shown)
VH: EVQLQESGAELVRPGTSVKLSCKVSGDTITAYYLHFVRQRPGQGLEWIGRIDPEDDSTKYAENFKNKATFTADASSNTAYLRLSSLTSEDTATYFCTTVTFYYSRELRWFAYWGQGTLVTVSS
VL: DIQVTQSPASLSASLEEIVTITCQASQDIGNYLSWYQQKLGKSPQLLIHSATSLADGVPSRFSGSRSGTQYSLKINRLQVEDTGIYYCLQHYSTPYTFGAGTKLELK

— article PMC4439582 (Immunity, 2015)
